Experimental findings from patent US20090281024A1 are described below.

For test [1], the target named is MAT CR12 (matriptase CR pair 1-2) (human) (UniProt Q9Y5Y6). As to the kind of experiment: relative binding signal under isomolar conditions on MAT CR12 (heading of the figure); solid-phase binding assay.
In test [2] the target is LRP2 CR89 Y1042W V1047D (human) (UniProt P98164). As to the kind of experiment: solid-phase assay, coated CR protein.
Test [3] concerns the target LRP2 CR89 Y1042W V1047D R1088D (human) (UniProt P98164). As to the kind of experiment: solid-phase assay, coated CR protein.

MAT CR12 (matriptase CR pair 1-2) (human), sequence (Q9Y5Y6 452-524 limits assumed): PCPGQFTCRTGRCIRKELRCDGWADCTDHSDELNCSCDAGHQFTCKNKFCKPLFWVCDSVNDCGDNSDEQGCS
LRP2 CR89 Y1042W V1047D (human), sequence (P98164 1022-1105 Y1043W/V1048D limits assumed): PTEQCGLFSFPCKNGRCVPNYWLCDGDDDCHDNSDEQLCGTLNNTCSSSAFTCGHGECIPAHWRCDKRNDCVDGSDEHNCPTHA
RAP d3 (wild-type third domain of the receptor-associated protein), sequence (P30533 235-353): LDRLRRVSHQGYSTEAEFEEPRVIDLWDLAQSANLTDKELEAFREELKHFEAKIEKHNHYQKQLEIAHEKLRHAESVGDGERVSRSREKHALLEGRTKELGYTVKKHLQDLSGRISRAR

In test [1], “MatRAP1 N-42 (from UniProt P30533 277-353) (designed binder)” returned a fnctn (relative binding signal under isomolar conditions) of 0.65. Consider “RAP d3 (wild-type third domain of the receptor-associated protein) (from UniProt P30533 235-353) (ligand)”, for which the % max bind in test [2] was 11%; in test [3], 15%.
